Measured values taken from patent US20250019652A1, “PRODUCTION METHOD FOR SHEET-LIKE RETINAL TISSUE” (RIKEN, priority 2021, published 2025).

Key:
Type in all cases: cell-based, human
[1] = test system: Rx::Venus-sorted cells (KhES-1-derived NR, Day 25); experiment: Search of factor that maintains property of retina at preparation into sheet again (Example 18); design: expression intensity of Rx::Venus, concentration dependency: dose or concentration left out as unconfirmed; conditions: for expression intensity of Rx::Venus: compared with PBS control, 10 days after seeding
Description: (§1) The aggregates (NR) of Day 25 from initiation of the suspension culture prepared in Example 1 were washed with PBS, and a neuronal cell dispersion solution (manufactured by FUJIFILM Wako Pure Chemical Corp.) was added. After incubation at 37° C., they were dispersed into single cells by pipetting, and sorting was carried out with Rx::Venus as an index using Cell sorter ARIAII (Becton, Dickinson and Company).
3 days after seeding, the medium was similarly replaced so as to maintain the concentrations of the low-molecular compounds or the proteins described in Tables 1 and 2. […] 10 days after seeding, fixation was performed in 4% PFA, and the evaluation of the cells after sorting was conducted with Rx::Venus as an index under a fluorescence microscope (BZ-X810 manufactured by Keyence Corp.).

[2] = test system: Rx::Venus-sorted NR cells on Transwell (KhES-1-derived); experiment: Effect of FGF8 at preparation into sheet again, microscopy and FACS (Example 20)
Description: as §1, with “24” for “25”, “Company). […] As a control, a group that was not supplemented with FGF8 (FGF8−) was also established.” for “Company).”
Medium replacement was carried out once every 3 to 4 days. FGF8 was also added at the time of medium replacement. Sheets after a lapse of differentiation for 63 days and 40 days after reseeding were observed under a fluorescence stereo microscope (FIGS. 60 and 61). For FACS analysis, the aggregates of Differentiation Day 64 and Day 41 after reseeding were washed with PBS and dispersed into single cells using a neuronal cell dispersion solution (manufactured by FUJIFILM Wako Pure Chemical Corp.). Then, formaldehyde fixation was performed using Fixation buffer (Becton, Dickinson and Company).
Thereafter, after fixation using Fixation buffer (Becton, Dickinson and Company) and washing with Perm/Wash buffer (Becton, Dickinson and Company), staining was performed with anti-CHX10-Alexa Fluor 647 conjugate antibody (Santa Cruz Biotechnology), anti-Sox2-BV421 conjugate antibody (BioLegend, Inc.), anti-Ki67 antibody (Becton, Dickinson and Company), and anti-CRX-Alexa Fluor 647 conjugate antibody (Santa Cruz Biotechnology). After washing of the antibodies with Perm/Wash buffer (Becton, Dickinson and Company), measurement was performed using FACSCantoII (BD Biosciences), and analysis was conducted using FlowJo. As a control, neural retinal tissue having the same number of differentiation days that was not reorganized was also established (FIG. 62).

[3] = test system: CD39-sorted cells of Islet-1 KO KhES-1-derived aggregates (NR); experiment: Islet-1 KO hESC-retina sheet prepared by sorting with CD39 and addition of FGF8 (Example 26); conditions: 50 ng/mL FGF8; Day 73
Description: For aggregates differentiated with 300 nM SAG at the start of suspension culture (at the start of differentiation, dd0), the aggregates (NR) of Day 25 from initiation of the suspension culture were dispersed into single cells and stained at 37° C. for 15 minutes using anti-CD39-APC conjugate antibody (Miltenyi Biotec). Then, sorting was carried out with CD39-APC as an index using Cell sorter ARIAII (Becton, Dickinson and Company). The cells after sorting were seeded at 8.0×10^5 cells per well into 12-well Transwell coated with collagen gel. […] As a control, a group that was not supplemented with FGF8 (FGF8−) was also established.
Medium replacement was carried out once every 3 to 4 days. FGF8 was also added at the time of medium replacement.

[4] = test system: sorted or unsorted dispersed NR cells (KhES-1 Rx::Venus); experiment: Aggregate reforming by addition of FGF8 and retinal differentiation, microscopy and FACS (Example 19)
Description: as §1, with “24” for “25”, “Company). The cells after sorting were seeded at 2.0 to 5.0×10^4 cells per well to a low adhesive V plate. As controls, a group that was not supplemented with FGF8 (FGF8−) and a group that was not sorted (unsorted) were also established.” for “Company).”
Medium replacement was carried out once every 3 to 4 days. FGF8 was also added at the time of medium replacement. […] RPE cells were partially observed in the sorted FGF8− group.
Further, the aggregates of Culture Day 54 for aggregate reforming (Day 30 after reseeding) were washed with PBS and dispersed into single cells using a neuronal cell dispersion solution (manufactured by FUJIFILM Wako Pure Chemical Corp.). Then, formaldehyde fixation was performed using Fixation buffer (Becton, Dickinson and Company). Thereafter, after washing with Perm/Wash buffer (Becton, Dickinson and Company), staining was performed with anti-CHX10-Alexa Fluor 647 conjugate antibody (Santa Cruz Biotechnology), anti-Sox2-BV421 antibody (BioLegend, Inc.), anti-Ki67-Alexa Fluor 647 conjugate antibody (Becton, Dickinson and Company), and anti-CRX-Alexa Fluor 647 conjugate antibody (Santa Cruz Biotechnology). After washing of the antibodies with Perm/Wash buffer (Becton, Dickinson and Company), measurement was performed using FACSCantoII (BD Biosciences), and analysis was conducted using FlowJo. As a control, neural retinal tissue having the same number of differentiation days that was not reorganized was also established.

[5] = test system: KhES-1 Rx::Venus aggregates; experiment: Differentiation with or without BMP4: retinal tissue versus brain organoid (Example 23); conditions: group supplemented with BMP4
Description: Human ES cells (KhES-1 strain (Non Patent Literature 3)) genetically engineered so as to have Rx::Venus reporter gene were cultured under feeder-free conditions in accordance with the method described in “Scientific Reports 4, 3594 (2014)”. As a feeder-free medium, StemFit medium (trade name: AK03N, manufactured by Ajinomoto Co., Inc.) was used, and as a scaffold in place of feeder cells, Laminin511-E8 (trade name, manufactured by Nippi, Inc.) was used. 300 nM SAG was added at the start of suspension culture (at the start of differentiation), and brain organoid was prepared on Day 3 from initiation of the suspension culture without adding BMP4. As a control, a group supplemented with BMP4 was established. Fluorescence microscope observation was performed as to the brain organoid of Day 26 from initiation of the suspension culture prepared in this way (FIG. 70). […] Further, these aggregates were fixed in 4% PFA. Sections were prepared and stained with DAPI and anti-FoxG1 antibody (Takara Bio Inc.), and observation was performed under a fluorescence microscope (BZ-X810 manufactured by Keyence Corp.). […] On the other hand, in the group that was not supplemented with BMP4, FoxG1 positive was confirmed, and it was confirmed that brain organoid was differentiated (FIG. 71).

[6] = versus neural retinal tissue not reorganized
[7] = sorted group supplemented with FGF8

B1: FGF8: fibroblast growth factor, FGF signaling pathway agonist (protein, UniProt P55075 23-233, looked up)
Fibroblast growth factor 8: QEGPGRGPALGRELASLFRAGREPQGVSQQHVREQSLVTDQLSRRLIRTYQLYSRTSGKHVQVLANKRINAMAEDGDPFAKLIVETDTFGSRVRVRGAETGLYICMNKKGKLIAKSNGKGKDCVFTEIVLENNYTALQNAKYEGWYMAFTRKGRPRKGSKTRQHQREVHFMKRLPRGHHTTEQSLRFEFLNYPPFTRSLRGSQRTWAPEPR
In the case of B1, the “expression intensity of Rx::Venus, concentration dependency” value ([1]; FGF8) is reported as “the highest expression intensity of Rx::Venus”, the “expression intensity of Rx::Venus” value [1] is reported as “high expression intensity of Rx::Venus” and the “Rx::Venus positive rate (FACS)” value ([2]; group supplemented with FGF8, Day 41 after reseeding) is reported as ≥ 95%. For the same molecule, the “black RPE in sheet” value ([2]; sheets supplemented with FGF8) was “hardly observed”, the “distribution of Rx::Venus-positive cells in sheet” value ([2]; sorted then supplemented with FGF8, 40 days after reseeding) was “Rx::Venus-positive cells were uniformly present in the whole wells” and the “percentage of Chx10-positive and Sox2-positive neural retinal progenitor cells or Crx-positive photoreceptor progenitor cells” value [2, 6] was “equivalent as compared with neural retinal tissue”. For the same molecule, the “percentage of Rx::Venus-positive and Ki67-positive proliferative retinal cells” value [2, 6] was “tended to be large as compared with neural retinal tissue”, the “distribution of Crx::Venus cell populations in sheet” value [3] was “uniformly present” and the “percentage of Chx10-positive and Sox2-positive neural retinal progenitor cells” value [4, 7] was “high”. For the same molecule, the “percentage of Crx-positive photoreceptor progenitor cells” value [4, 7] was “tended to be low”, the “RPE cells or Rx::Venus-negative masses” value ([4]; sorted, FGF8+, Day 10 after reseeding) was “RPE cells or Rx::Venus-negative masses were not observed” and the “Rx::Venus positive rate (FACS)” value ([4]; unsorted group supplemented with FGF8, Day 30 after reseeding) was “the Rx::Venus positive rate tended to be high”. For the same molecule, the “Rx::Venus-negative cell masses or RPE cells” value ([4]; unsorted, FGF8+, Day 10 after reseeding) was “these cell masses were observed to decrease”.

B2: BMP4: exogenous human recombinant BMP4, BMP signaling pathway agonist (protein, UniProt P12644 293-408, looked up)
Bone morphogenetic protein 4: SPKHHSQRARKKNKNCRRHSLYVDFSDVGWNDWIVAPPGYQAFYCHGDCPFPLADHLNSTNHAIVQTLVNSVNSSIPKACCVPTELSAISMLYLDEYDKVVLKNYQEMVVEGCGCR
In the case of B2, the FoxG1 staining [5] is reported as “FoxG1 was negative” and the “differentiated tissue (Rx::Venus)” value ([5]; Day 26) is reported as “Rx::Venus-positive retinal tissue was observed to be differentiated”.

B3: FGF4: fibroblast growth factor, FGF signaling pathway agonist (protein, UniProt P08620 31-206, looked up)
Fibroblast growth factor 4: APTAPNGTLEAELERRWESLVALSLARLPVAAQPKEAAVQSGAGDYLLGIKRLRRLYCNVGIGFHLQALPDGRIGGAHADTRDSLLELSPVERGVVSIFGVASRFFVAMSSKGKLYGSPFFTDECTFKEILLPNNYNAYESYKYPGMFIALSKNGKTKKGNRVSPTMKVTHFLPRL
B3 was tested, and the “expression intensity of Rx::Venus” value [1] was “high expression intensity of Rx::Venus”.
